Test results as given in the supplement of paper PMC10567573.
± gives the standard deviation.

Assay: protein stability index of a GFP-peptide fusion (GPS, HEK-293T) (PSI 1-6); higher = more stable
[1] = treatment: DMSO, c terminus: a fixed tail appended
[2] = treatment: MLN4924 1 uM, 8 h, c terminus: a fixed tail appended
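Note: 24-mer peptide tiles fused after GFP, lentivirally expressed, FACS-sorted into six equal bins by GFP/DsRed ratio, decoded by Illumina sequencing, PSI is the read-weighted mean bin number.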

LVHVMERSLSPSLSSVDMRMTSSP [RAD54B]
protein stability index [1]: 2.51 ± 0.34
protein stability index [2]: 2.58 ± 0.36

LVQVESVNLQVATYSKFQPQSPDF [UFD1]
protein stability index [1]: 2.32 ± 0.22
protein stability index [2]: 2.35 ± 0.32

LVRDWSFPYEYSYGLQGGMAFLDK [ATL3]
protein stability index [1]: 1.96 ± 0.23
protein stability index [2]: 2.19 ± 0.38

LVVAVAAVSCVFLAFVIVLLAHRL [PCDHGA10]
protein stability index [1]: 2.9 ± 0.83
protein stability index [2]: 2.83 ± 0.15

LYGLGSGSSYVQNGTGNAYEEEAN [CNOT7]
protein stability index [1]: 4.74 ± 0.2
protein stability index [2]: 4.84 ± 0.24

LYLNLALHLASDFFLKHPDKDVRL [PDS5B]
protein stability index [1]: 2.73 ± 0.41
protein stability index [2]: 3.29 ± 0.27

LYPREGKYNHAACFGLQPGCLLPD [NLN]
protein stability index [1]: 2.96 ± 0.33
protein stability index [2]: 3.1 ± 0.44

MAAGGRMEDGSLDITQSIEDDPLL [TMEM192]
protein stability index [1]: 4.7 ± 0.29
protein stability index [2]: 4.87 ± 0.16

MAAGGSGVGGKRSSKSDADSGFLG [NOP53]
protein stability index [1]: 3.57 ± 0.22
protein stability index [2]: 3.96 ± 0.12

MDGATLCNCALEELRLVFGPLGDQ [ELF3]
protein stability index [1]: 2.33 ± 0.27
protein stability index [2]: 2.4 ± 0.68

MEGLAGYVYKAASEGKVLTLAALL [FEM1B]
protein stability index [1]: 2.22 ± 0.31
protein stability index [2]: 2.09 ± 0.44

MEKSSFTEYIESPDVENEVKRLLR [TAF7L]
protein stability index [1]: 3.79 ± 0.28
protein stability index [2]: 3.83 ± 0.23

MENKSLESSQTDLKLVAHPRAKSK [ZBED1]
protein stability index [1]: 5.26 ± 0.29
protein stability index [2]: 5.27 ± 0.25

MEQPTSSTNGEKTKSPCESNNKKN [SPANXN3]
protein stability index [1]: 5.32 ± 0.33
protein stability index [2]: 4.92 ± 0.85

MGGTQQQFVEGVRMEEIVEGCTGA [CTNNB1]
protein stability index [1]: 5.09 ± 0.15
protein stability index [2]: 5.1 ± 0.072

MGNLVMFRKDSVLNILIQSLDWET [INTS3]
protein stability index [1]: 2.68 ± 0.64
protein stability index [2]: 2.82 ± 0.45

MIIVAISPKYKQDVEGAESQLDED [TRAF3IP2]
protein stability index [1]: 2.52 ± 0.14
protein stability index [2]: 2.26 ± 0.25

MIRESETKKGFYSLSVRHRQVKHY [SLA]
protein stability index [1]: 2.59 ± 0.44
protein stability index [2]: 2.94 ± 0.13

MLENYSNLVSVGYQAGKPDALTKL [ZNF649]
protein stability index [1]: 2.72 ± 0.2
protein stability index [2]: 2.83 ± 0.18

MLPGVGVFGTSLTARVIIPLLKDE [GFOD1]
protein stability index [1]: 2.17 ± 0.19
protein stability index [2]: 2.02 ± 0.16

MLTVMTKYQANITETQRLGLAMAL [FANCE]
protein stability index [1]: 2.52 ± 0.43
protein stability index [2]: 2.48 ± 0.25

MNGDSRAAVVTSPPPTTAPHKERY [ADD1]
protein stability index [1]: 4.89 ± 0.26
protein stability index [2]: 5.07 ± 0.22

MNYMPGTASLIEDIDKKHLVLLRD [LSM1]
protein stability index [1]: 3.15 ± 0.16
protein stability index [2]: 3.27 ± 0.32

MQAAEVFSQKHFPEVVQHEEFILL [KLHL12]
protein stability index [1]: 2.17 ± 0.48
protein stability index [2]: 2.44 ± 0.73

MRAAALCDKHSKLFEEPEDPSNRS [PPP2R2C]
protein stability index [1]: 5.14 ± 0.12
protein stability index [2]: 5.17 ± 0.12

MRGPEPGPQPTMEGDVLDTLEALG [FAM98B]
protein stability index [1]: 5.19 ± 0.34
protein stability index [2]: 5.087 ± 0.039

MSPYLVPDTQALCHHLPVIRQLAT [SMG5]
protein stability index [1]: 2.3 ± 0.28
protein stability index [2]: 2.52 ± 0.22

MSQTVQRMLVAASWACAFTNALTH [OR3A1]
protein stability index [1]: 3.3 ± 0.22
protein stability index [2]: 3.31 ± 0.23

MTSMSAELKMRAIQAEERLDMEKR [LRRC45]
protein stability index [1]: 4.65 ± 0.19
protein stability index [2]: 4.9 ± 0.16

MVHINRALKLIIRLFLVEDLVDSL [RTN3]
protein stability index [1]: 2.88 ± 0.31
protein stability index [2]: 2.92 ± 0.53

MVPISKQPKEKIQAIIESCSRQFP [NOL4L]
protein stability index [1]: 3.34 ± 0.11
protein stability index [2]: 3.38 ± 0.47

MVSALRGAPLIRVHSSPVSSPSVS [SPACA3]
protein stability index [1]: 2.85 ± 0.39
protein stability index [2]: 3.08 ± 0.3

MVVIHKEIPTGKKDHECSECGKTF [ZNF232]
protein stability index [1]: 3.07 ± 0.4
protein stability index [2]: 3.28 ± 0.2

MWAHSMTVQDYQDLIDRGWRRSGK [ATE1]
protein stability index [1]: 3.11 ± 0.14
protein stability index [2]: 3.27 ± 0.24

NCSIGPNVSLGPGVVVEDGVCIRR [GMPPB]
protein stability index [1]: 4.29 ± 0.3
protein stability index [2]: 4.393 ± 0.043

NDFGVFLCKLFPFLQKSSVGITVL [EDNRA]
protein stability index [1]: 2.88 ± 0.52
protein stability index [2]: 3.26 ± 0.73

NEIFTQLYRTLFSVINNGHNQKVH [PDS5B]
protein stability index [1]: 2.24 ± 0.47
protein stability index [2]: 2.47 ± 0.56

NELDSGFRLLNLKNDSLRKRYDGL [TSN]
protein stability index [1]: 3.21 ± 0.28
protein stability index [2]: 3.43 ± 0.36

NGADVNIQSKDGKSPLHMTAVHGR [ANKRD44]
protein stability index [1]: 4.44 ± 0.22
protein stability index [2]: 4.46 ± 0.11

NIKANDYANAVLQALSNVPPLRNY [USP39]
protein stability index [1]: 2.18 ± 0.21
protein stability index [2]: 2.03 ± 0.32

NIPQMADTLFERATNSSWVVVFKA [SNAP91]
protein stability index [1]: 2.27 ± 0.65
protein stability index [2]: 2.3 ± 0.82

NIQETHRLYRLKLEELTKLQNNCT [TMEM120A]
protein stability index [1]: 2.92 ± 0.19
protein stability index [2]: 3.08 ± 0.29

NITVQKKVSQWWERLTKQEKRPLF [HACD3]
protein stability index [1]: 2.65 ± 0.18
protein stability index [2]: 2.91 ± 0.13

NKGTETDNDPSCVHPIIKRRQCRP [PHTF1]
protein stability index [1]: 4.88 ± 0.085
protein stability index [2]: 4.81 ± 0.21

NLKWLDLKDNPLDPVLAKVAGDCL [LRRC59]
protein stability index [1]: 3.21 ± 0.26
protein stability index [2]: 3.08 ± 0.19

NLQSLKTPTLKVFMHENLYFTNRK [DCAF4]
protein stability index [1]: 2.73 ± 0.26
protein stability index [2]: 2.65 ± 0.2

NLRRHVPDLESGSESGADTISVNQ [DLC1]
protein stability index [1]: 5.29 ± 0.27
protein stability index [2]: 5.25 ± 0.28

NMAGVTFRKFIPKCSKIVIDFDSI [DCTD]
protein stability index [1]: 2.5 ± 0.39
protein stability index [2]: 1.95 ± 0.32

NNILISAVLPTAFRVAKKRAPKVL [GDAP1]
protein stability index [1]: 2.34 ± 0.24
protein stability index [2]: 2.48 ± 0.34

NNMNAVNLFFAWIKIFKYISFNKT [PKD2L1]
protein stability index [1]: 2.81 ± 0.46
protein stability index [2]: 2.58 ± 0.54

NNTGKNLELKFVSSLRRQFEFSVD [TENT5D]
protein stability index [1]: 2.75 ± 0.42
protein stability index [2]: 2.75 ± 0.4

NPEVGIFVSIAQSEQESLLQQAQA [SMG5]
protein stability index [1]: 4.09 ± 0.3
protein stability index [2]: 4.23 ± 0.24

NPIIYSFRNPDVQSAIWRMLTGRR [OR3A1]
protein stability index [1]: 2.51 ± 0.41
protein stability index [2]: 2.58 ± 0.36

NPLIASSFSLVKLVLRRQLKNKCC [C22orf31]
protein stability index [1]: 2.25 ± 0.35
protein stability index [2]: 2.18 ± 0.32

NQRIIHRDMKPDNILLDEHDTWLS [STK32A]
protein stability index [1]: 3.71 ± 0.33
protein stability index [2]: 3.63 ± 0.27

NRVSAIIFSLATEWVISTGHDKCV [WDFY1]
protein stability index [1]: 2.96 ± 0.23
protein stability index [2]: 2.89 ± 0.4

NSQESRSDLEDMEEEEGTRSPTLE [SMG5]
protein stability index [1]: 5.56 ± 0.16
protein stability index [2]: 5.44 ± 0.23

NSRVDDTFWASWRAFAQIGPARSG [MIR22HG]
protein stability index [1]: 2.6 ± 0.32
protein stability index [2]: 2.79 ± 0.35

NVEDASHEEVVEKVKKSGSRVMFL [PDZK1]
protein stability index [1]: 4.45 ± 0.2

NVNRLNESFRDLQLRLLQAPLQAD [SCARA5]
protein stability index [1]: 3.3 ± 0.38
protein stability index [2]: 3.33 ± 0.34

PALEEAPDSHQKRPQHSHSNKKRP [ELOA2]
protein stability index [1]: 5.52 ± 0.25
protein stability index [2]: 5.33 ± 0.46

PAMAASKALGSDLDSSLASLVGNL [SNAP91]
protein stability index [1]: 4.06 ± 0.34
protein stability index [2]: 3.95 ± 0.34

PANSETSDLTLYLVVAVAAVSCVF [PCDHGA10]
protein stability index [1]: 2.69 ± 0.61
protein stability index [2]: 2.59 ± 0.54

PARLLLQALQAGPEGARRGLGVLR [FANCE]
protein stability index [1]: 2.67 ± 0.16
protein stability index [2]: 2.82 ± 0.34

PATALGTASYPSDGCGADGLRSRV [NOL4L]
protein stability index [1]: 4.39 ± 0.27
protein stability index [2]: 4.55 ± 0.26

PDITSSRYRGLPAPGPSPADKKRS [WAS]
protein stability index [1]: 5.22 ± 0.097
protein stability index [2]: 5.271 ± 0.036

PDRGSPEYRQRRERNNIAVRKSRD [CEBPD]
protein stability index [1]: 5.03 ± 0.37
protein stability index [2]: 5.35 ± 0.12

PEAEENKQIIRKHAQTFVALCATD [CCND1]
protein stability index [1]: 3.4 ± 0.73
protein stability index [2]: 3.81 ± 0.71

PEFIKVRENLRRIATLTSEEREL [FAM107A]
protein stability index (treatment: DMSO, c terminus: native): 2.66 ± 0.5
protein stability index (treatment: MLN4924 1 uM, 8 h, c terminus: native): 3.35 ± 0.55

PEIQKVRAQEREQIKALNNKFASF [KRT71]
protein stability index [1]: 3.78 ± 0.32
protein stability index [2]: 3.86 ± 0.44

PEKASELSQVELQAAPGALPVSSP [TRIM55]
protein stability index [1]: 5.21 ± 0.38
protein stability index [2]: 5.49 ± 0.24

PFNKVQSARFWIPGEPNNAGNNEH [CD207]
protein stability index [1]: 3.92 ± 0.35
protein stability index [2]: 3.93 ± 0.17

PFSFGTLSSWELEAWYEDLQEVLS [DDIT3]
protein stability index [1]: 2.37 ± 0.54
protein stability index [2]: 2.78 ± 0.21

PGAPRGNPPKASAAPDCTPSLEAG [MYCL]
protein stability index [1]: 5.28 ± 0.34
protein stability index [2]: 5.36 ± 0.17

PGGETEALTRLERHLERKAWVANF [CRY1]
protein stability index [1]: 3.04 ± 0.36
protein stability index [2]: 3.07 ± 0.39

PGGGRGALLDQIRQGIQLNKTPGA [WAS]
protein stability index [1]: 5.3 ± 0.1
protein stability index [2]: 4.99 ± 0.47

PGPSPDVQLATLAQRVKEVLPHVP [AUP1]
protein stability index [1]: 4.14 ± 0.32
protein stability index [2]: 4.14 ± 0.13

PGSFWGLCQVAQEALASAGASCCG [VENTX]
protein stability index [1]: 2.41 ± 0.4
protein stability index [2]: 2.54 ± 0.22

PGTSFKDSTKTAFHRSQTLSYRNG [EFHC1]
protein stability index [1]: 3.68 ± 0.1
protein stability index [2]: 3.89 ± 0.11

PHFLRVPCWKITLFVIVPVLGPLV [MOG]
protein stability index [1]: 2.9 ± 0.65
protein stability index [2]: 2.85 ± 0.3

PHQCSECGRAFSRKSLLVVHQRTH [ZNF649]
protein stability index [1]: 4.93 ± 0.2
protein stability index [2]: 5.12 ± 0.16

PIETLIRDMLLSGSSFNWPYMAIQ [NR2F2]
protein stability index [1]: 3.34 ± 0.18
protein stability index [2]: 2.95 ± 0.62

PKGEPGSKQSPPMASSPIQPRKGG [FBF1]
protein stability index [1]: 5.33 ± 0.1
protein stability index [2]: 5.38 ± 0.091

PLGNTPMMNQSMMGMNMNIGMSAA [CLINT1]
protein stability index [1]: 3.07 ± 0.21
protein stability index [2]: 2.9 ± 0.24

PLQFLGLFENSLCRLTHIPAYKVS [ZER1]
protein stability index [1]: 2.02 ± 0.55
protein stability index [2]: 2.08 ± 0.5

PMDSTMDDAVAGDFALINKLDIQC [ATE1]
protein stability index [1]: 4.4 ± 0.26
protein stability index [2]: 4.29 ± 0.24

PMPLSEGKSILLFGGAAAVAILAV [BCL2L13]
protein stability index [1]: 2.77 ± 0.76
protein stability index [2]: 2.75 ± 0.69

PNPSKVLQQLLVLQPEQQLNIYKT [CDS1]
protein stability index [1]: 2.38 ± 0.33
protein stability index [2]: 2.44 ± 0.3

PPHPAPAPQHPAASALRTRMTGGR [DYRK1B]
protein stability index [1]: 4.86 ± 0.23
protein stability index [2]: 4.9 ± 0.13
